From US8367390B2, “Galactanase variants” (Novozymes A/S, priority 2002, dated 2013)

Assay: Activity with ONPG, release of o-nitrophenol (ONP) at 405 nm
Type: biochemical
Conditions: enzyme 110 μg/ml, ONPG 5 mg/ml
Description: The activity of HIGAL and MTGAL with ONPG was tested by mixing 200 microliters (normally 5.5 mg/ml) ONPG in 50 mM sodium acetate, 1 mM CaCl2, 0.01% Triton X-100, pH 6.5 with 25 microliters galactanase (normally 1 mg/ml) in the well of a microtiter plate. Release of o-nitrophenol (ONP) was measured at room temperature at 405 nm every 10 seconds normally for 30 min on a SpectraMaxPlus (Molecular Devices). Effects on the observed release of ONP was studied with varied enzyme concentration, ONPG concentration and with addition of galactose (Gal), beta-1,4-galactobiose (Gal2) (Megazyme), beta-1,4-galactotriose (Gal3), beta-1,4-galactotetraose (Gal4), glucose (Glu), arabinose (Ara), galacturonic acid (GalA), maltose (Mal) or maltotriose (Mal3).
In Tables 8-11 below, incubation times required to increase the observed absorbance at 405 nm by given amounts are listed. Cells marked ‘n.r.’ indicate that the increase in absorbance was not reached in the experiment. In general, the initial increase in absorbance at 405 nm was very slow, but after a lag phase the rate of ONP release often increased drastically—often approximately exponentially. The most likely explanation for the observed kinetics is that ONPG reacts with the enzyme to give an enzyme-galactosyl intermediate which hydrolyses very slowly. Instead, the Gal of the intermediate is released by transglycosylation, initially with ONPG or added sugar as acceptor. In cases where the rate of ONP release increases, these transglycosylation products are even better acceptors than the initial ones. […] More likely, Gal inhibits the subsequent transglycosylation, which requires binding of ONPG to the +1 and +2 subsites, e.g., by binding to the +2 subsite. With 50 mg/ml Gal added (results not shown) release of ONP was even slower with only insignificant increase of absorbance at 405 nm in 30 min.

[1] = Table 11, no sugar, first experiment
[2] = Table 11, no sugar, second experiment
[3] = Table 11, no sugar, third experiment

B1: HIGAL: GH Family 53 galactanase from Humicola insolens, SEQ ID NO: 2 (wild type parent) (protein, listed as Humicola insolens)
chain: ALQYKGVDWSSVMVEERAGVRYKNVNGQEKPLEYILAENGVNMVRQRVWVNPWDGNYNLDYNIQLARRAKAAGLGLYINFHYSDTWADPAHQTTPAGWPSDINNLAWKLYNYTLDSMNRFADAGIQVDIVSIGNEITQGLLWPLGKTNNWYNIARLLHSAAWGVKDSRLNPKPKIMVHLDNGWNWDTQNWWYTNVLSQGPFEMSDFDMMGVSFYPFYSASATLDSLRRSLNNMVSRWGKEVAVVETNWPTSCPYPRYQFPADVRNVPFSAAGQTQYIQSVANVVSSVSKGVGLFYWEPAWIHNANLGSSCADNTMFTPSGQALSSLSVFHRI
modifications: mat_peptide (1)..()
Table 10, Gal3 0.5 mg/ml
  Initial rate (mOD/min): 200 mOD/min
  Time (min) to increase A405 by: 0.025: 0.0 min
  Time (min) to increase A405 by: 0.05: 0.2 min
  Time (min) to increase A405 by: 0.1: 0.3 min
  Time (min) to increase A405 by: 0.2: 0.5 min
  Time (min) to increase A405 by: 0.4: 0.8 min
  Time (min) to increase A405 by: 0.8: 1.5 min
  Time (min) to increase A405 by: 1.6: 2.5 min
  Time (min) to increase A405 by: 3.2: 3.8 min
Table 10, Gal4 0.05 mg/ml
  Initial rate (mOD/min): 80 mOD/min
  Time (min) to increase A405 by: 0.025: 0.2 min
  Time (min) to increase A405 by: 0.05: 0.5 min
  Time (min) to increase A405 by: 0.1: 0.8 min
  Time (min) to increase A405 by: 0.2: 1.5 min
  Time (min) to increase A405 by: 0.4: 2.5 min
  Time (min) to increase A405 by: 0.8: 3.7 min
  Time (min) to increase A405 by: 1.6: 5.2 min
  Time (min) to increase A405 by: 3.2: 7.5 min
Table 10, Gal4 0.5 mg/ml
  Initial rate (mOD/min): 700 mOD/min
  Time (min) to increase A405 by: 0.025: 0.0 min
  Time (min) to increase A405 by: 0.05: 0.0 min
  Time (min) to increase A405 by: 0.1: 0.0 min
  Time (min) to increase A405 by: 0.2: 0.2 min
  Time (min) to increase A405 by: 0.4: 0.5 min
  Time (min) to increase A405 by: 0.8: 1.0 min
  Time (min) to increase A405 by: 1.6: 2.2 min
  Time (min) to increase A405 by: 3.2: 5.3 min
Table 10, no sugar
  Initial rate (mOD/min): 0.9 mOD/min
  Time (min) to increase A405 by: 0.025: 10.0 min
  Time (min) to increase A405 by: 0.05: 11.3 min
  Time (min) to increase A405 by: 0.1: 12.8 min
  Time (min) to increase A405 by: 0.2: 14.2 min
  Time (min) to increase A405 by: 0.4: 15.7 min
  Time (min) to increase A405 by: 0.8: 17.0 min
  Time (min) to increase A405 by: 1.6: 18.5 min
  Time (min) to increase A405 by: 3.2: 20.0 min
Table 11, Ara 5 mg/ml
  Time (min) to increase A405 by: 0.025: 26.5 min
  Time (min) to increase A405 by: 0.05: n.r.
  Time (min) to increase A405 by: 0.1: n.r.
  Time (min) to increase A405 by: 0.2: n.r.
  Time (min) to increase A405 by: 0.4: n.r.
  Time (min) to increase A405 by: 0.8: n.r.
  Time (min) to increase A405 by: 1.6: n.r.
  Time (min) to increase A405 by: 3.2: n.r.
Table 11, GalA 5 mg/ml
  Time (min) to increase A405 by: 0.025: 9.5 min
  Time (min) to increase A405 by: 0.05: 11.2 min
  Time (min) to increase A405 by: 0.1: 12.7 min
  Time (min) to increase A405 by: 0.2: 14.3 min
  Time (min) to increase A405 by: 0.4: 15.8 min
  Time (min) to increase A405 by: 0.8: 17.5 min
  Time (min) to increase A405 by: 1.6: 19.3 min
  Time (min) to increase A405 by: 3.2: 22.5 min
Table 11, GalA 50 mg/ml
  Time (min) to increase A405 by: 0.025: 13.7 min
  Time (min) to increase A405 by: 0.05: 16.7 min
  Time (min) to increase A405 by: 0.1: 20.0 min
  Time (min) to increase A405 by: 0.2: 23.3 min
  Time (min) to increase A405 by: 0.4: 26.8 min
  Time (min) to increase A405 by: 0.8: n.r.
  Time (min) to increase A405 by: 1.6: n.r.
  Time (min) to increase A405 by: 3.2: n.r.
Table 11, Glu 5 mg/ml
  Time (min) to increase A405 by: 0.025: 12.8 min
  Time (min) to increase A405 by: 0.05: 14.8 min
  Time (min) to increase A405 by: 0.1: 17.0 min
  Time (min) to increase A405 by: 0.2: 19.3 min
  Time (min) to increase A405 by: 0.4: 21.8 min
  Time (min) to increase A405 by: 0.8: 24.3 min
  Time (min) to increase A405 by: 1.6: 27.0 min
  Time (min) to increase A405 by: 3.2: n.r.
Table 11, Mal 5 mg/ml
  Time (min) to increase A405 by: 0.025: 11.5 min
  Time (min) to increase A405 by: 0.05: 13.0 min
  Time (min) to increase A405 by: 0.1: 14.3 min
  Time (min) to increase A405 by: 0.2: 15.7 min
  Time (min) to increase A405 by: 0.4: 17.2 min
  Time (min) to increase A405 by: 0.8: 18.7 min
  Time (min) to increase A405 by: 1.6: 20.2 min
  Time (min) to increase A405 by: 3.2: 22.0 min
Table 11, Mal3 5 mg/ml
  Time (min) to increase A405 by: 0.025: 11.0 min
  Time (min) to increase A405 by: 0.05: 12.3 min
  Time (min) to increase A405 by: 0.1: 13.8 min
  Time (min) to increase A405 by: 0.2: 15.2 min
  Time (min) to increase A405 by: 0.4: 16.5 min
  Time (min) to increase A405 by: 0.8: 18.0 min
  Time (min) to increase A405 by: 1.6: 19.3 min
  Time (min) to increase A405 by: 3.2: 21.3 min
[1]
  Time (min) to increase A405 by: 0.025: 8.5 min
  Time (min) to increase A405 by: 0.05: 9.5 min
  Time (min) to increase A405 by: 0.1: 10.8 min
  Time (min) to increase A405 by: 0.2: 12.0 min
  Time (min) to increase A405 by: 0.4: 13.3 min
  Time (min) to increase A405 by: 0.8: 14.5 min
  Time (min) to increase A405 by: 1.6: 15.8 min
  Time (min) to increase A405 by: 3.2: 17.3 min
[2]
  Time (min) to increase A405 by: 0.025: 11.0 min
  Time (min) to increase A405 by: 0.05: 12.5 min
  Time (min) to increase A405 by: 0.1: 13.8 min
  Time (min) to increase A405 by: 0.2: 15.2 min
  Time (min) to increase A405 by: 0.4: 16.5 min
  Time (min) to increase A405 by: 0.8: 18.0 min
  Time (min) to increase A405 by: 1.6: 19.5 min
  Time (min) to increase A405 by: 3.2: 21.3 min
[3]
  Time (min) to increase A405 by: 0.025: 8.7 min
  Time (min) to increase A405 by: 0.05: 9.8 min
  Time (min) to increase A405 by: 0.1: 11.0 min
  Time (min) to increase A405 by: 0.2: 12.2 min
  Time (min) to increase A405 by: 0.4: 13.3 min
  Time (min) to increase A405 by: 0.8: 14.7 min
  Time (min) to increase A405 by: 1.6: 16.0 min
  Time (min) to increase A405 by: 3.2: 17.3 min
